Results on 2 sequences are retold here after patent US5994504.

The target in the series is VDRE-BP (NWP nuclear VDRE binding protein, B95-8 nuclear extract) (UniProt Q9TTV2). Kind of series: competition. Conditions: 100-fold excess unlabeled competitor.
Sequence of VDRE-BP (NWP nuclear VDRE binding protein, B95-8 nuclear extract) (Q9TTV2 whole entry): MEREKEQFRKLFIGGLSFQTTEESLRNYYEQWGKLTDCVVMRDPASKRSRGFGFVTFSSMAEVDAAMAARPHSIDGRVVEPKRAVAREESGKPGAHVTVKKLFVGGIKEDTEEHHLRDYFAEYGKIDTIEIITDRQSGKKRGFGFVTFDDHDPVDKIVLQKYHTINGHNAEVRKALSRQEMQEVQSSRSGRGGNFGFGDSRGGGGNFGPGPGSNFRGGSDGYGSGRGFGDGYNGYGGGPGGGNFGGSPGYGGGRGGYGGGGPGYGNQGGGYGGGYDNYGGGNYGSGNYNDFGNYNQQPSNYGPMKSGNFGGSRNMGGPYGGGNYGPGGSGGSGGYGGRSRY

For the sequence AGGTCA direct repeat, 3 bp spacer, the binding signal (% decrease of opVDRE band) stood at 64.

Regarding GGTTCA direct repeat, 3 bp spacer, the binding signal (% decrease of opVDRE band) was 61.
